# Measurements: PMC7575002
# B1: major tail protein gpV of bacteriophage lambda, in free tails, P03733 1-246 (natural protein)
# chain: MPVPNPTMPVKGAGTTLWVYKGSGDPYANPLSDVDWSRLAKVKDLTPGELTAESYDDSYLDDEDADWTATGQGQKSAGDTSFTLAWMPGEQGQQALLAWFNEGDTRAYKIRFPNGTVDVFRGWVSSIGKAVTAKEVITRTVKVTNVGRPSMAEDRSTVTAATGMTVTPASTSVVKGQSTTLTVAFQPEGVTDKSFRAVSADKTKATVSVSGMTITVNGVAAGKVNIPVVSGNGEFAAVAEITVTAS
# Biological target: T1, major tail protein gpV of bacteriophage lambda, in free tails (bacteriophage lambda), P03733
# T1 chain: B1 chain
# Test: cryo-EM structure
# Details: remark: other sources report otherwise
binder,measurement,value
B1,stoichiometry N,6
